By Kd is commonly meant the free concentration of one partner at which half of the binding sites on the other are occupied at equilibrium, for simple one-to-one binding.

The target in assay [1] is 460.
In assay [2] the target is 461.
The target in assay [3] is 439.
For assay [4], the target named is 443.
Assay [5] concerns the target 453.
The target of assay [6] is 455.

B1: PDZ domain of the human MAST2 protein (other)
chain: MRPPIIIHRAGKKYGFTLRAIRVYMGDSDVYTVHHMVWHVEDGGPASEAGLRQGDLITHVNGEPVHGLVHTEVVELILKSGNKVAISTTPLEN
B1: the dissociation constant Kd in assay [1] turned out to be 188 nM; in assay [2] it was 126 nM; in assay [3], 210 nM; in assay [4], 400 nM; in assay [5], 238 nM; in assay [6] it was 130 nM.

The values above are taken from patent US20140315822A1 (INSTITUT PASTEUR, published 2014).
